Source: patent US20150203825A1, “Laccase of Podospora Anserina and Uses of Same” (priority 2012, published 2015)

Legend:
[1] = substrate: CCn1c(=NN=c2sc3cc(S(=O)(=O)O)ccc3n2CC)sc2cc(S(=O)(=O)O)ccc21; test: purified protein, by the assay type; settings: other: ABTS 0 to 1.5 mM, 0.1 M citrate/phosphate buffer, pH 3.4, 37° C.
[2] = substrate: COc1cc(/C=N/N=C/c2cc(OC)c(O)c(OC)c2)cc(OC)c1O; test: Enzymatic test, oxidation of syringaldazine (SGZ) (stationary-phase kinetics); format: biochemical, Podospora anserina; settings: other: SGZ 0 to 50 μM (diluted in methanol), citrate-phosphate 50 mM buffer, pH 7, 37° C., 530 nm
Description: The enzymatic tests are carried out using a Varian spectrophotometer in a 0.1 M citrate/phosphate buffer at 37° C. in a volume of 3 ml by monitoring the oxidation of various substrates at a given wavelength as a function of time. The specific activity of the enzyme is expressed in μmol of substrates oxidized per minute and per mg of protein.
The experiments are carried out at 37° C. on a Varian spectrophotometer in a citrate-phosphate 50 mM buffer, pH 7. The concentration of SGZ, diluted in methanol, varies in the test from 0 to 50 μM. The test, initiated by the addition of enzyme, consists in monitoring the oxidation of the SGZ at 530 nm by colorimetric change (ε530nm=64 mM^−1 cm^−1).

[3] = Enzymatic activity (SGZ oxidation) in the presence of NaCl; format: biochemical; settings: 150 mM of NaCl, SGZ oxidation at 530 nm, 37° C., 50 mM phosphate-citrate buffer, pH 7
Description: In order to verify the influence of sodium chloride (present in a physiological medium) on the activity of the laccase, increasing concentrations of NaCl were added to the activity test consisting in monitoring the oxidation, at 530 nm, of the SGZ at 37° C. in a 50 mM phosphate-citrate buffer, pH 7.

[4] = Electrochemical measurements, enzymatic electrode with redox polymer, reduction of O2; settings: pH 7, in the presence of Cl
Text: At pH 7 and in the presence of Cl, the catalytic current for the reduction of O2 is 40% greater for the electrode modified with the novel enzyme. In addition, the stability over time is 200% greater.

catalytic current for the reduction of O2, greater than electrode with laccase of Trametes versicolor [4] [%]	Molecule	Km [1] [µM]	kcat [1] [s⁻¹]	Km [2] [µM]	kcat [2] [s⁻¹]	oxidation activity still exhibited in the presence of NaCl [3] [%]	stability over time, greater than electrode with laccase of Trametes versicolor [4] [%]
	Podospora anserina laccase, SEQ ID No. 3 (Podospora anserina S mat+) (protein, purified) SVARKDWESPTYSWLYQFPLPIPPVKTPKLTVTNLVTGNPIHYYEVYINRFTQQVYPNKGPATLVGYDGISPGPTFIVERGHEAVVRFVNNASIENSVHLHGSYSRAPWDGWAEDVTMPGEFKDYYYPNQQAARFLWYHDHAFMHTAENAYFGQAGAYIIHDPAEDALNLPSGYGVHDIPLVLSSKQYNNNGSLFTTNGETDSLFGDVIHVNGQPWPYFNVEPRKYRLRFLDAAVSRTFKLYFQRQTGSSAKIPFQVIATDAGLMASPATTNDLYISMGERYEVVFDFSPFAGQNITLRNTDDVGQDDDYLHTNKVMRFIVGNTPVTDTSSIPSTLATVDWPTSDGTGVDRHFKFDRSNGEWQINGVVFADVNNRVLANVPRGKVEIWELENGGGGWSHPIHIHLVDFKVLWRSNDDGRPVYNYEAQGLKDVVWLAPNEIVRVEAHYAPWDGVYMFHCHNLIHEDHDMMAAFNVTALTDLGYNETAFRDPMEARWRAEPVTAAKFTTAAITEKIQFMAGLQPYNNVEEVLEVLDEYWATHSKRDAQDPAPKTRRMRIEGGKVKEVR	307	1372	10.9	1.3		
40	laccase of SEQ ID No. 3: Podospora anserina laccase of SEQ ID No. 1 with an additional N-terminal serine, expressed in Pichia pastoris from the pFD56 vector (protein, listed as Podospora anserina) SVARKDWESPTYSWLYQFPLPIPPVKTPKLTVTNLVTGNPIHYYEVYINRFTQQVYPNKGPATLVGYDGISPGPTFIVERGHEAVVRFVNNASIENSVHLHGSYSRAPWDGWAEDVTMPGEFKDYYYPNQQAARFLWYHDHAFMHTAENAYFGQAGAYIIHDPAEDALNLPSGYGVHDIPLVLSSKQYNNNGSLFTTNGETDSLFGDVIHVNGQPWPYFNVEPRKYRLRFLDAAVSRTFKLYFQRQTGSSAKIPFQVIATDAGLMASPATTNDLYISMGERYEVVFDFSPFAGQNITLRNTDDVGQDDDYLHTNKVMRFIVGNTPVTDTSSIPSTLATVDWPTSDGTGVDRHFKFDRSNGEWQINGVVFADVNNRVLANVPRGKVEIWELENGGGGWSHPIHIHLVDFKVLWRSNDDGRPVYNYEAQGLKDVVWLAPNEIVRVEAHYAPWDGVYMFHCHNLIHEDHDMMAAFNVTALTDLGYNETAFRDPMEARWRAEPVTAAKFTTAAITEKIQFMAGLQPYNNVEEVLEVLDEYWATHSKRDAQDPAPKTRRMRIEGGKVKEVR					70	200
